78 sequences from the supplement of paper PMC7877785 can be followed below.

± gives the uncertainty stated by the source.

A short description of this data set: self-splicing fitness, log relative to wild type (ln ratio); higher = more splicing; Tetrahymena group I intron in knt gene, E. coli kanamycin selection, DiMSum; sequences stand for … in CUCUCU…GGAGGGAAAAGUUAUCAGGCAUGCACCUGGUAGCUAGUCUUUAAACCAAUAGAUUGCAUCGGUUUAAAAGGCAAGACCGUCAAAUUGCGGGAAAGGGGUCAACAGCCGUUCAGUACCAAGUCUCAGGGGAAACUUUGAGAUGGCCUUGCAAAGGGUAUGGUAAUAAGCUGACGGACAUGGUCCUAACCACGCAGCCAAGUCCUAAGUCAACAGAUCUUCUGUUGAUAUGGAUGCAGUUCACAGACUAAAUGUCGGUCGGGGAAGAUGUAUUCUUCUCAUAAGAUAUAGUCGGACCUCUCCUUAAUGGGAGCUAGCGGAUGAAGUGAUGCAACACUGGAGCCGCUGGGAACUAAUUUGUAUGCGAAAGUAUAUUGAUUAGUUUUGGAGUACUCGUGGUCG
In a few lines:
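The eight P1ex-region nucleotides of an intron in the knt kanamycin-resistance gene on pET-22b(+) were all randomised and the library put into E. coli BL21(DE3). Six replicate transformations were grown overnight at 37°C or 30°C on LB agar with or without 25 μg/mL kanamycin, together with 100 μg/mL carbenicillin, 50 μM IPTG and 0.2% rhamnose. Colonies were pooled and amplicon-sequenced on an Illumina HiSeq 2500. Fitness from DiMSum is the error-weighted combination of wild-type-normalised replicate fold changes, kanamycin over none.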

Regarding GGAUAGCAAUAUUACGAAUG, the “self-splicing fitness (ln)” value (30 °C) is -2.73 ± 0.18 and the “self-splicing fitness (ln)” value (37 °C) was -1.87 ± 0.2.

In the case of GAUAAGCAAUAUUACGUGGC, the “self-splicing fitness (ln)” value runs as follows: (30 °C) -3.32 ± 0.21; (37 °C) -2.24 ± 0.27.

Consider UCGGAGCAAUAUUACGAGGG, for which the “self-splicing fitness (ln)” value was -3.58 ± 0.21 (30 °C) and -2.94 ± 0.44 (37 °C).

For the sequence AUGCAGCAAUAUUACGUGCC, the “self-splicing fitness (ln)” value by setting is: (30 °C) -1.08 ± 0.11; (37 °C) -0.869 ± 0.15. Consider GACUAGCAAUAUUACGAGUC, for which the “self-splicing fitness (ln)” value (37 °C) is -2.36 ± 0.39. UAUUAGCAAUAUUACGGUGG: the “self-splicing fitness (ln)” value is -2.71 ± 0.28 (30 °C) and -1.22 ± 0.2 (37 °C). Taken in the same sequence, the figures for CAGGAGCAAUAUUACGCGAA were -1.4 ± 0.17 and -2.07 ± 0.23.

With AGGUAGCAAUAUUACGGAUG, the “self-splicing fitness (ln)” value is -3.698 ± 0.028 (30 °C) and -2.39 ± 0.037 (37 °C). Taken in the same sequence, the figures for UGCAAGCAAUAUUACGACUA were 0.0901 ± 0.093 and 0.525 ± 0.11. Taken in the same sequence, the figures for ACGCAGCAAUAUUACGUUAG were -4.1 ± 0.16 and -2.46 ± 0.12. On to CUAAAGCAAUAUUACGCUGU, for which the “self-splicing fitness (ln)” value by setting is: (30 °C) -3.72 ± 0.29; (37 °C) -2.39 ± 0.21. Take UGGCAGCAAUAUUACGUUGU: the “self-splicing fitness (ln)” value was -3.71 ± 0.29 (30 °C) and -3.17 ± 0.3 (37 °C). On to UCCUAGCAAUAUUACGUGGA, for which the “self-splicing fitness (ln)” value reads like this: (30 °C) -2.37 ± 0.16; (37 °C) -2.74 ± 0.23. Taken in the same sequence, the figures for UUGUAGCAAUAUUACGAAAA were -1.86 ± 0.17 and -0.986 ± 0.19. In the case of GAAUAGCAAUAUUACGCUGG, the “self-splicing fitness (ln)” value is -2.17 ± 0.33 (30 °C) and -0.278 ± 0.24 (37 °C). Taken in the same sequence, the figures for UGUUAGCAAUAUUACGGCGU were -0.742 ± 0.1 and -0.892 ± 0.14. With AGCAAGCAAUAUUACGCAUC, the “self-splicing fitness (ln)” value is -2.72 ± 0.093 (30 °C) and -3.73 ± 0.24 (37 °C). Taken in the same sequence, the figures for AUAAAGCAAUAUUACGCGUC were -4.6 ± 0.46 and -2.73 ± 0.29. Taken in the same sequence, the figures for AACAAGCAAUAUUACGCGUA were -1.13 ± 0.067 and -0.921 ± 0.078. On to UUUUAGCAAUAUUACGACCA, for which the “self-splicing fitness (ln)” value by setting is: (30 °C) -0.399 ± 0.34; (37 °C) -0.577 ± 0.37.

In the case of UUAAAGCAAUAUUACGAGAG, the “self-splicing fitness (ln)” value (30 °C) is -0.988 ± 0.061 and the “self-splicing fitness (ln)” value (37 °C) was -0.259 ± 0.11.

For the sequence UAGGAGCAAUAUUACGUAUC, the “self-splicing fitness (ln)” value (30 °C) is -1.71 ± 0.2. As for AAUAAGCAAUAUUACGGUGU, the “self-splicing fitness (ln)” value (30 °C) is -2.59 ± 0.12 and the “self-splicing fitness (ln)” value (37 °C) was -0.711 ± 0.12.

For AUAGAGCAAUAUUACGAAAU, the “self-splicing fitness (ln)” value runs as follows: (30 °C) -0.572 ± 0.1; (37 °C) 0.0653 ± 0.13. Taken in the same sequence, the figures for CGAUAGCAAUAUUACGACUG were -0.203 ± 0.083 and 0.803 ± 0.1. Taken in the same sequence, the figures for GUCGAGCAAUAUUACGUCGA were -3.97 ± 0.42 and -2.65 ± 0.44. Taken in the same sequence, the figures for GCCCAGCAAUAUUACGGAGC were -4.06 ± 0.39 and -2.17 ± 0.34. Regarding CGACAGCAAUAUUACGUAGC, the “self-splicing fitness (ln)” value by setting is: (30 °C) -3.61 ± 0.18; (37 °C) -2.21 ± 0.16.

Regarding GCUCAGCAAUAUUACGAAUC, the “self-splicing fitness (ln)” value runs as follows: (30 °C) -0.406 ± 0.081; (37 °C) -0.385 ± 0.082. Taken in the same sequence, the figures for CAGAAGCAAUAUUACGACGG were -0.126 ± 0.079 and 0.104 ± 0.1. Regarding CCCAAGCAAUAUUACGUACC, the “self-splicing fitness (ln)” value (37 °C) is -1.82 ± 0.28. For AUUAAGCAAUAUUACGGUCC, the “self-splicing fitness (ln)” value (30 °C) was -0.321 ± 0.14 and the “self-splicing fitness (ln)” value (37 °C) was -0.358 ± 0.19. For the sequence CAGGAGCAAUAUUACGGUCU, the “self-splicing fitness (ln)” value was -3.85 ± 0.22 (30 °C) and -2.84 ± 0.17 (37 °C).

Turning to CGGGAGCAAUAUUACGCUUC, for the setting “37 °C”, the “self-splicing fitness (ln)” value is -2.21 ± 0.31. For GGCAAGCAAUAUUACGAAGA, the “self-splicing fitness (ln)” value (30 °C) was -2.24 ± 0.18 and the “self-splicing fitness (ln)” value (37 °C) is -0.478 ± 0.12. Regarding CUACAGCAAUAUUACGUGGC, the “self-splicing fitness (ln)” value (30 °C) was -3.68 ± 0.29 and the “self-splicing fitness (ln)” value (37 °C) was -2.44 ± 0.32. Taken in the same sequence, the figures for CCGGAGCAAUAUUACGUCCA were -1.39 ± 0.21 and -1.66 ± 0.32.

With GGAGAGCAAUAUUACGUCAA, the “self-splicing fitness (ln)” value is -2.93 ± 0.31 (30 °C) and -3.54 ± 0.46 (37 °C).

Take CUCGAGCAAUAUUACGUCGU: the “self-splicing fitness (ln)” value by setting is: (30 °C) -1.77 ± 0.26; (37 °C) -1.88 ± 0.37. On to GGUGAGCAAUAUUACGGGGA, for which the “self-splicing fitness (ln)” value (37 °C) is -2.42 ± 0.28.

As for AGAUAGCAAUAUUACGCCUU, the “self-splicing fitness (ln)” value is -0.881 ± 0.09 (30 °C) and -0.255 ± 0.11 (37 °C).

For CACUAGCAAUAUUACGUUGC, the “self-splicing fitness (ln)” value runs as follows: (30 °C) -2.61 ± 0.22; (37 °C) -1.58 ± 0.21. Taken in the same sequence, the figures for UGACAGCAAUAUUACGGUAU were -3.58 ± 0.2 and -2.45 ± 0.21.

In the case of ACGUAGCAAUAUUACGUACU, the “self-splicing fitness (ln)” value (30 °C) was -1.11 ± 0.11 and the “self-splicing fitness (ln)” value (37 °C) is -2 ± 0.14. As to ACUUAGCAAUAUUACGAUGA, the “self-splicing fitness (ln)” value is -0.609 ± 0.094 (30 °C) and -1.2 ± 0.1 (37 °C). Consider AACCAGCAAUAUUACGCUGA, for which the “self-splicing fitness (ln)” value (30 °C) is -2.56 ± 0.1 and the “self-splicing fitness (ln)” value (37 °C) was -1.51 ± 0.094. Taken in the same sequence, the figures for CUGCAGCAAUAUUACGCUGU were -1.87 ± 0.12 and -2.8 ± 0.3. Taken in the same sequence, the figures for UCAUAGCAAUAUUACGCGUG were -2.85 ± 0.12 and -1.67 ± 0.11. With CCCCAGCAAUAUUACGCAUA, the “self-splicing fitness (ln)” value runs as follows: (30 °C) -2.67 ± 0.14; (37 °C) -2.4 ± 0.2. ACCUAGCAAUAUUACGUGUG: the “self-splicing fitness (ln)” value is, setting by setting: (30 °C) -1.28 ± 0.057; (37 °C) -0.808 ± 0.064. Taken in the same sequence, the figures for GAUUAGCAAUAUUACGACCA were -0.409 ± 0.23 and -0.295 ± 0.34. For the sequence UUCUAGCAAUAUUACGAUGA, the “self-splicing fitness (ln)” value is -0.819 ± 0.19 (30 °C) and -0.0657 ± 0.2 (37 °C). In the case of CAGUAGCAAUAUUACGUCCC, the “self-splicing fitness (ln)” value (37 °C) is -1.76 ± 0.4. As for CGCUAGCAAUAUUACGGUUC, the “self-splicing fitness (ln)” value by setting is: (30 °C) -2.13 ± 0.21; (37 °C) -0.893 ± 0.26. For the sequence AUGUAGCAAUAUUACGGUGC, the “self-splicing fitness (ln)” value (30 °C) is -2.55 ± 0.3.

CCUGAGCAAUAUUACGGAUG: the “self-splicing fitness (ln)” value is, setting by setting: (30 °C) -1.52 ± 0.057; (37 °C) -1.31 ± 0.078. Taken in the same sequence, the figures for CAGCAGCAAUAUUACGAGAG were -2.38 ± 0.083 and -1.81 ± 0.089.

As for ACGUAGCAAUAUUACGUAUU, the “self-splicing fitness (ln)” value is, setting by setting: (30 °C) -3.93 ± 0.17; (37 °C) -2.48 ± 0.15. Regarding CUGAAGCAAUAUUACGUCAA, the “self-splicing fitness (ln)” value by setting is: (30 °C) -1.2 ± 0.065; (37 °C) -0.435 ± 0.084. GGACAGCAAUAUUACGGGCG: the “self-splicing fitness (ln)” value (30 °C) is -0.664 ± 0.075 and the “self-splicing fitness (ln)” value (37 °C) is -0.0669 ± 0.09. As to UCUGAGCAAUAUUACGCGGG, the “self-splicing fitness (ln)” value was -3.91 ± 0.26 (30 °C) and -2.29 ± 0.2 (37 °C). With CGCCAGCAAUAUUACGUCCA, the “self-splicing fitness (ln)” value (37 °C) was -1.45 ± 0.39. Take UAUAAGCAAUAUUACGCGCA: the “self-splicing fitness (ln)” value was -0.204 ± 0.11 (30 °C) and 0.304 ± 0.14 (37 °C). For the sequence CGUCAGCAAUAUUACGUGAC, the “self-splicing fitness (ln)” value (30 °C) is -3.29 ± 0.18 and the “self-splicing fitness (ln)” value (37 °C) was -2.82 ± 0.23. In the case of UAGCAGCAAUAUUACGGGAG, the “self-splicing fitness (ln)” value is -2.58 ± 0.099 (30 °C) and -2.11 ± 0.11 (37 °C). Take UUGCAGCAAUAUUACGGUAA: the “self-splicing fitness (ln)” value is -0.988 ± 0.099 (30 °C) and -0.0317 ± 0.093 (37 °C). Taken in the same sequence, the figures for CCAAAGCAAUAUUACGUAGU were -3.67 ± 0.15 and -3.14 ± 0.14. Taken in the same sequence, the figures for GGCGAGCAAUAUUACGGGUC were -1.2 ± 0.26 and -1.81 ± 0.35. On to GGUAAGCAAUAUUACGAGGG, for which the “self-splicing fitness (ln)” value runs as follows: (30 °C) -2.38 ± 0.14; (37 °C) -2.98 ± 0.24. Taken in the same sequence, the figures for AAAUAGCAAUAUUACGACAU were -0.145 ± 0.012 and 0.051 ± 0.032. For GUCGAGCAAUAUUACGCGUC, the “self-splicing fitness (ln)” value reads like this: (30 °C) -1.43 ± 0.15; (37 °C) -2.49 ± 0.2. Taken in the same sequence, the figures for GACUAGCAAUAUUACGCGAG were -2.49 ± 0.21 and -1.28 ± 0.15. Taken in the same sequence, the figures for GACUAGCAAUAUUACGUAGC were -2.47 ± 0.11 and -1.4 ± 0.1. As to AUGUAGCAAUAUUACGAAGA, the “self-splicing fitness (ln)” value (37 °C) is -0.739 ± 0.21. Regarding AUUGAGCAAUAUUACGCAAU, the “self-splicing fitness (ln)” value runs as follows: (30 °C) -3.28 ± 0.26; (37 °C) -2.07 ± 0.21. Taken in the same sequence, the figures for GGCGAGCAAUAUUACGUUAG were -1.94 ± 0.15 and -2.49 ± 0.4. As to AAAAAGCAAUAUUACGAUGC, the “self-splicing fitness (ln)” value reads like this: (30 °C) -1.66 ± 0.091; (37 °C) -0.868 ± 0.11. As to AUAAAGCAAUAUUACGCAUU, the “self-splicing fitness (ln)” value was -1.82 ± 0.086 (30 °C) and -0.523 ± 0.11 (37 °C).
